Target: FLAG-Tor (Dictyostelium discoideum, UniProt Q86C65 1-2380)
Experiment: pull-down

Chain of FLAG-Tor (Q86C65 whole entry): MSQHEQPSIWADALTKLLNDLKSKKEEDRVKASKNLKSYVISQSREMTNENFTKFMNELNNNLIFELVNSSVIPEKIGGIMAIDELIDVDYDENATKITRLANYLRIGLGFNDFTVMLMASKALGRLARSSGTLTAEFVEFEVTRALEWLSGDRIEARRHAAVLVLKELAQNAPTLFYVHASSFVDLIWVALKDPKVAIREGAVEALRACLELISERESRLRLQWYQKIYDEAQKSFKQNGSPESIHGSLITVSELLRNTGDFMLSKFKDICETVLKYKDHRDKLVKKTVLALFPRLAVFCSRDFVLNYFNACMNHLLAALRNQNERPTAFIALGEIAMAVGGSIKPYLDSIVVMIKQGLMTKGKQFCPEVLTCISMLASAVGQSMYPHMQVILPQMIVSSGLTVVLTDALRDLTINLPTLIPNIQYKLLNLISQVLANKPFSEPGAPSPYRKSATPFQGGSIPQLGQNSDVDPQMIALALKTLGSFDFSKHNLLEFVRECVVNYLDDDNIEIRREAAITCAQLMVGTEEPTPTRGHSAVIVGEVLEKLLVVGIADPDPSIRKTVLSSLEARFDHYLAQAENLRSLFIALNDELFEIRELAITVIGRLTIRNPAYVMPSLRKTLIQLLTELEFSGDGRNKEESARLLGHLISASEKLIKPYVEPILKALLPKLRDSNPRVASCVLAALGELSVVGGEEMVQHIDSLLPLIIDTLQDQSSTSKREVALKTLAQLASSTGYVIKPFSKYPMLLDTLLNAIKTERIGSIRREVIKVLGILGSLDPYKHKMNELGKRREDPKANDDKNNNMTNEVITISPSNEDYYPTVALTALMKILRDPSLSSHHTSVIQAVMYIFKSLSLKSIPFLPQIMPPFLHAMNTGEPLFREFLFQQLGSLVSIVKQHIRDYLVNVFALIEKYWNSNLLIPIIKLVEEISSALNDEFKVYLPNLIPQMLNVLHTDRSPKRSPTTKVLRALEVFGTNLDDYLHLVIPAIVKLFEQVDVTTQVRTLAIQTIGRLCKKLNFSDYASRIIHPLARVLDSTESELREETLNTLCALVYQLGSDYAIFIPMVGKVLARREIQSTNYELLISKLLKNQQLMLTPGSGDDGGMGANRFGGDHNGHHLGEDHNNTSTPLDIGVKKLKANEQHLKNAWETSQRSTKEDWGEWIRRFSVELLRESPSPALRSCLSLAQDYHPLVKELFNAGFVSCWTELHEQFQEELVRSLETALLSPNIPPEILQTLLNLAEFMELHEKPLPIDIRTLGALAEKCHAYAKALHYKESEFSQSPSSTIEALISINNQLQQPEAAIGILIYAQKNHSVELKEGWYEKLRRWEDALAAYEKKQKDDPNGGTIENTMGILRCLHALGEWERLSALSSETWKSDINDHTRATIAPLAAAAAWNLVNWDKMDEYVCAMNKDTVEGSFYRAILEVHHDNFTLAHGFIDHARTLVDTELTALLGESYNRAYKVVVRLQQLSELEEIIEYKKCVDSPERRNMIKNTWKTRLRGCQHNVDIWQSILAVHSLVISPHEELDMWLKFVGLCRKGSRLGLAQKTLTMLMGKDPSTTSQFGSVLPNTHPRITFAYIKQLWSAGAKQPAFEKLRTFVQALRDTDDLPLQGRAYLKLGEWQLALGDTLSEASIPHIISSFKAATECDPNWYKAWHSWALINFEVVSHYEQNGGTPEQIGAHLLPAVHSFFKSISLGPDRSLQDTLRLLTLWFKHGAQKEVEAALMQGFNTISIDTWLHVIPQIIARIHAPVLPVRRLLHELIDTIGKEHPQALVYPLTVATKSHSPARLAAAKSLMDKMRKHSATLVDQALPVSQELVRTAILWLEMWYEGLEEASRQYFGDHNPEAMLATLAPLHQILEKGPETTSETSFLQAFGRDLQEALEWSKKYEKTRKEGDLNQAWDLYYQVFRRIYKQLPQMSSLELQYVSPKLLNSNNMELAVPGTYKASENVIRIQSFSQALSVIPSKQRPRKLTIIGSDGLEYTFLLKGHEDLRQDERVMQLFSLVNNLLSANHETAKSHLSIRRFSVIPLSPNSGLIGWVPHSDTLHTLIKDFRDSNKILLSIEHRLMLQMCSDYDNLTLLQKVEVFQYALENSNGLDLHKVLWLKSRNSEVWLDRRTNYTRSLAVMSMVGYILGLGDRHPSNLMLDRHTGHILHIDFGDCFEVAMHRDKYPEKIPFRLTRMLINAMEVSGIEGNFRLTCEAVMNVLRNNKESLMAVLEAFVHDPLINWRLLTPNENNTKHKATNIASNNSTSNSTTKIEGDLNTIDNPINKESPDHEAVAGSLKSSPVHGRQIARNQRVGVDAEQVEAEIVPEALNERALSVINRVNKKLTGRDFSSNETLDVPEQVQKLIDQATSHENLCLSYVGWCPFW

binding result: binds
B1: GFP-RacE_(T25N), GDP-bound, purified after chemoattractant stimulation (Ser192 phosphorylated) (natural protein)
chain: MSEDQGSGATRVKLVVVGDGAVGKNCLLICYAQNDFPVDYVPTVFENYTATRKRGNEDIKVHLWDTAGQEEYDRLRPLSYPGADVVLLCFSTISQSSYEAIRDKWAPEVNHYIPDVPSILVGTKIDLREQQHPDPNSGKFEPITADMGISMQKQIKAKKYLEVSAKTRQGLEEVFSAAIEIVLESRGMDKKSQDGSSSASGVPSGDKPTKGKAGKKKSGCIIL
modifications: phosphoserine at 192 (chemoattractant-induced)

Source: article PMC6650273 (Nature cell biology, 2019)
